Laboratory results published in publication PMC7046147, “Impaired DNA-binding affinity of novel PAX6 mutations”.

B1: P6CON (dsDNA)
DNA 1: AAATTTTCACGCTTGAGTTCACAGCT
DNA 2: AGCTGTGAACTCAAGCGTGAAAATTT
B2: P6B (dsDNA)
DNA 1: AAGCATTTTCACGCATGAGTGCACAG
DNA 2: TTCTGTGCACTCATGCGTGAAAATGC
B3: CD19 A-ins (dsDNA)
DNA 1: GAATGGGGCACTGAGGCGTGACCACCGC
DNA 2: GCGGTGGTCACGCCTCAGTGCCCCATTC

Assays:
Experiment in all cases: ITC; ITC (iTC200) at 25 °C in buffer C (composition not given; protein stored in 25 mM Hepes pH 7.5, 150 mM NaCl, 5 mM b-ME); 20 uM protein in cell, 200 uM DNA in syringe, one-site model
PAX6 PD G72S = PAX6 PD G72S (human, UniProt P26367 4-136, G72S); conditions: protein: recombinant
PAX6 PD G72S, sequence (P26367 4-136 G72S): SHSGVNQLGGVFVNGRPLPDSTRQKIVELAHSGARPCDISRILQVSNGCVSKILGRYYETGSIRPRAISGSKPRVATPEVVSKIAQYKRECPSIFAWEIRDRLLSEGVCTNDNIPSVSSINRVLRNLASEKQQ

PAX6 paired domain WT = PAX6 paired domain WT (human, UniProt P26367 4-136); conditions: protein: recombinant, tags: N-terminal His6 removed by TEV
PAX6 paired domain WT, sequence (P26367 4-136): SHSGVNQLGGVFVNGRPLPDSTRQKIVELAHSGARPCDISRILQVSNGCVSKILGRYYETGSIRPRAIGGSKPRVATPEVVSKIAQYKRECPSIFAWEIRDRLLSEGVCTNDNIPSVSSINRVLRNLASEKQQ

PAX6 PD S74G = PAX6 PD S74G (human, UniProt P26367 4-136, S74G); conditions: protein: recombinant
PAX6 PD S74G, sequence (P26367 4-136 S74G): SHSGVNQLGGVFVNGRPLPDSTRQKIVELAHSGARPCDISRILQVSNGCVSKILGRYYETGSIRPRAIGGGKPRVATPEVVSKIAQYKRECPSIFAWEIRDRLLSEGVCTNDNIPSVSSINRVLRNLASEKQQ

PAX6 PD G64V = PAX6 PD G64V (human, UniProt P26367 4-136, G64V); conditions: protein: recombinant
PAX6 PD G64V, sequence (P26367 4-136 G64V): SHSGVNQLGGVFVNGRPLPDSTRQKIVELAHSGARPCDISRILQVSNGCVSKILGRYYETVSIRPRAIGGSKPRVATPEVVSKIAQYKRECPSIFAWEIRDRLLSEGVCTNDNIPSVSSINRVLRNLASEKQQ

PAX6 PD G72C = PAX6 PD G72C (human, UniProt P26367 4-136, G72C); conditions: protein: recombinant, tags: N-terminal His6 removed by TEV
PAX6 PD G72C, sequence (P26367 4-136 G72C): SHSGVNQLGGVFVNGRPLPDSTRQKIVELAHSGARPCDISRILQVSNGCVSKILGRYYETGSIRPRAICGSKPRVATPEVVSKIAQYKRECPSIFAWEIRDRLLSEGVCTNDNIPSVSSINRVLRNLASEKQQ

PAX6 PD G73D = PAX6 PD G73D (human, UniProt P26367 4-136, G73D); conditions: protein: recombinant
PAX6 PD G73D, sequence (P26367 4-136 G73D): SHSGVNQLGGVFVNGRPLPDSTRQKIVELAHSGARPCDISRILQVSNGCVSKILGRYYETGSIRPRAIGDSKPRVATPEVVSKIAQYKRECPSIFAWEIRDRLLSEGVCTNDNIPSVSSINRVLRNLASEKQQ

PAX6 PD P76R = PAX6 PD P76R (human, UniProt P26367 4-136, P76R); conditions: protein: recombinant; 5' overhang 2 nt on each strand (AA/TT), 24 bp
PAX6 PD P76R, sequence (P26367 4-136 P76R): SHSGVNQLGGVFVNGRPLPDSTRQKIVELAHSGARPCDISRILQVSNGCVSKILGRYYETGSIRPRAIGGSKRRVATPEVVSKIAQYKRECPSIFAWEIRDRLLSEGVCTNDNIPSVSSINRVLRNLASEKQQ

[1] = 5' overhang 2 nt on each strand (AA/TT), 24 bp

Row | Binder | Kd (PAX6 PD G72S; blunt) [µM] | Kd (PAX6 paired domain WT; blunt) [µM] | Kd (PAX6 PD S74G; blunt) [µM] | Kd (PAX6 PD G64V; blunt) [µM] | Kd (PAX6 PD G72C; blunt) [µM] | Kd (PAX6 PD G73D; blunt) [µM] | Kd (PAX6 PD G72S; [1]) [µM] | Kd (PAX6 PD P76R) [µM] | Kd (PAX6 paired domain WT; [1]) [µM] | Kd (PAX6 PD S74G; [1]) [µM] | Kd (PAX6 PD G64V; [1]) [µM] | Kd (PAX6 PD G72C; [1]) [µM] | Kd (PAX6 PD G73D; [1]) [µM] | binding result (PAX6 PD G73D; blunt)
1 | B1 | 0.943 ± 0.037 | 0.925 ± 0.047 | 1.04 ± 0.045 | 1.29 ± 0.078 | 1.41 ± 0.11 | 0.961 ± 0.048 |  |  |  |  |  |  |  | 
2 | B2 |  |  |  |  |  |  | 1.2 ± 0.13 | 0.74 ± 0.093 | 0.411 ± 0.068 | 0.699 ± 0.18 | 2.52 ± 1.02 | 0.579 ± 0.37 | 0.489 ± 0.128 | 
3 | B3 | 0.98 ± 0.043 | 0.952 ± 0.078 | 0.943 ± 0.031 | 2.17 ± 0.162 | 5.02 ± 0.36 |  |  |  |  |  |  |  |  | no binding
